Here are results for 5 substances from PMC8960412.

pEC50, pKd: −log10 of the molar value.

In experiment [1] the target is anti-huPD-1-huGITR-L bispecific (Anti-PD-1-GITR-L-hIgG1-LALA) (human) (UniProt Q9UNG2). In words: SPR; Biacore T200; antibody constructs captured by goat anti-human H+L on a CM5 chip, recombinant human GITR-His as analyte; global 1:1 fit (Supplementary Table 3). In general terms: In SPR one partner is held on a chip, and binding of the other changes the refractive index at the surface.

The target of experiment [2] is isotype/huGITR-L-hIgG1-LALA (human). Described as above.
The target of experiment [3] is anti-huPD-1-huGITR-L bispecific (Anti-PD-1-GITR-L-hIgG1-LALA) (human) (UniProt Q9UNG2). The experiment is described as follows: SPR; bispecific captured as in the human SPR, recombinant human or cynomolgus GITR-His as analyte; cross-species experiment (Supplementary Table 11).
Experiment [4] shares this target. The experiment is described as follows: SPR; Biacore T200; samples directly immobilised by amine coupling, human FcRn/β2m as analyte; running buffer pH 6.0.
The target in experiment [5] is isotype/huGITR-L-hIgG1-LALA (human). Described as above.
Experiment [6] concerns the target isotype-hIgG1-LALA (human). The experiment is described as above.
Experiment [7] has as its target anti-PD-1-hIgG1-LALA (human). The description is as above.
In experiment [8] the target is human GITR on transfected HEK293 cells (human) (UniProt Q9Y5U5). The experiment is described as follows: flow cytometry on cells; human GITR-HEK293 cells incubated with a serial dilution of antibodies; detected with PE goat anti-human IgG F(ab')2. (In flow cytometry, cells or beads pass a laser one at a time.)
In experiment [9] the target is anti-huPD-1-huGITR-L bispecific (Anti-PD-1-GITR-L-hIgG1-LALA) (human) (UniProt Q9UNG2). In words: SPR; as for human FcRn/β2m: samples immobilised, cyno FcRn/β2m as analyte; pH 6.0.
Experiment [10] deals with isotype/huGITR-L-hIgG1-LALA (human). The description is as above.
Experiment [11] has as its target isotype-hIgG1-LALA (human). The experiment is described as above.
The target in experiment [12] is anti-PD-1-hIgG1-LALA (human). The description is as above.
Chain of anti-PD-1-hIgG1-LALA (human) (heavy, as listed by the source, chain 1 of 2): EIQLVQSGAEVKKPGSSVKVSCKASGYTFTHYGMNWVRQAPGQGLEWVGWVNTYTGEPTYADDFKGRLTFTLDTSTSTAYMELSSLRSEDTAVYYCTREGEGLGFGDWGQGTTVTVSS
Chain of anti-PD-1-hIgG1-LALA (human) (light, as listed by the source, chain 2 of 2): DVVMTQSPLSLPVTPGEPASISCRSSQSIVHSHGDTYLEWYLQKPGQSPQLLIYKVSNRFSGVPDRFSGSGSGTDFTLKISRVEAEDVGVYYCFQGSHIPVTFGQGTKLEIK

“Hu GITR-His (recombinant extracellular domain of human GITR) (from UniProt Q9Y5U5 26-162) (domain or fragment)”: in experiment [1], the negative-log Kd (pKd) (commonly the negative decadic logarithm of the Kd, by convention in mol/L) is 7.80; the off-rate (koff) (as a rule, a measure of how fast the partners let go of each other) turned out to be 0.0017 s⁻¹; the on-rate constant (kon) (as a rule, the rate constant with which the complex forms) came to 110000 M⁻¹ s⁻¹. In experiment [2], the pKd is 7.82, the off-rate constant (koff) stood at 0.0016 s⁻¹ and the on-rate (kon) was 110000 M⁻¹ s⁻¹. Further, in experiment [3], the negative logarithm of the Kd (pKd) was 8.74, the koff amounted to 0.001 s⁻¹ and the kon came to 560000 M⁻¹ s⁻¹.
Take “human FcRn/β2m heterodimer (from UniProt P55899 24-297; P61769 21-119) (complex)”: the pKd in experiment [4] was 5.64; in [5], 5.62; in experiment [6] it was 5.70; in experiment [7] it was 5.66.
For isotype/huGITR-L-hIgG1-LALA, in experiment [8], the pEC50 (in general, −log10 of the EC50, conventionally taken in molar units) was 9.05.
Take “cyno FcRn/β2m heterodimer (from UniProt Q8SPV9 24-365; Q8SPW0 21-119) (complex)”: the pKd in experiment [9] is 5.70; in experiment [10], 5.66; in experiment [11], 5.77; in [12] it was 5.72.
For the substance “Cyno GITR-His (recombinant extracellular domain of cynomolgus GITR) (domain or fragment)”, in experiment [3], the negative-log Kd (pKd) is 9.10, the dissociation rate constant (koff) was 0.00087 s⁻¹ and the on-rate (kon) is 1.1e+06 M⁻¹ s⁻¹.
